Test results: US20240124586A1

Key:
[1] = biological target: human CD19 on CD19+ B cell lines (Ramos, Raji) (human) (UniProt P15391); assay: FACS bridging of pre-labelled Jurkat (CD3+) and Raji (CD19+) cells mixed 1:1, negative control
[2] = biological target: human CD3 on CD3+ Jurkat cells (human) (UniProt P07766); assay: as above
[3] = biological target: human C1Q (human) (UniProt P02745); assay: ELISA, antibody coated on the plate, C1q titrated (axis: [C1q] nM), anti-C1q-HRP detection
[4] = biological target: human C1Q (human) (UniProt P02745); assay: ELISA, antibody coated on the plate, C1q titrated (the concentration is that of C1q)

Sequence of human C1Q (human) (P02745 23-245 limits assumed, chain 1 of 3): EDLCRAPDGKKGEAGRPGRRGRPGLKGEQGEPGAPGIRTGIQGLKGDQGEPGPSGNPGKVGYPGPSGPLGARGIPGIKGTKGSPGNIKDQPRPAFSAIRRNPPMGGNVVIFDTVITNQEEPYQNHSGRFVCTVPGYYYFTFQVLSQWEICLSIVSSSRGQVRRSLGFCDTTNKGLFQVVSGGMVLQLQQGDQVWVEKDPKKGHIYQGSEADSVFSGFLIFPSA
Sequence of human C1Q (human) (P02746 28-253 limits assumed, chain 2 of 3, further chain): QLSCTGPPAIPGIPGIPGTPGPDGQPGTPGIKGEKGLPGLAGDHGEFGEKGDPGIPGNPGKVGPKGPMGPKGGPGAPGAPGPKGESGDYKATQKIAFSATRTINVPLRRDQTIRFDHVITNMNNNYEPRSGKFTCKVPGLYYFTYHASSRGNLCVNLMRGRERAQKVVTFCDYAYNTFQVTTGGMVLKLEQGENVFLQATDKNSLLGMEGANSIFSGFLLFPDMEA
Sequence of human C1Q (human) (P02747 29-245 limits assumed, chain 3 of 3, further chain): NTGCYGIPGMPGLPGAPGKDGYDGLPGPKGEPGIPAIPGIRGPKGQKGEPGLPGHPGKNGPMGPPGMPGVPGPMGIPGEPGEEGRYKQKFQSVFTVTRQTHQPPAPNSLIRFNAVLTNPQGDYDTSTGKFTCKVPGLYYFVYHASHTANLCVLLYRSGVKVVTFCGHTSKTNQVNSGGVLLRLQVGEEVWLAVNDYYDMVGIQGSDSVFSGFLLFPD
Sequence of human CD3 on CD3+ Jurkat cells (human) (P07766 23-207, chain 1 of 3): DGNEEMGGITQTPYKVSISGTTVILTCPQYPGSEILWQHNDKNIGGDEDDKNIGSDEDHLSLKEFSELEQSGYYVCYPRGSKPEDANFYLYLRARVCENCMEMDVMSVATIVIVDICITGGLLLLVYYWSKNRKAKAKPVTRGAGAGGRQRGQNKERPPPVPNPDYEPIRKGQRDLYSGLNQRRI
Sequence of human CD3 on CD3+ Jurkat cells (human) (P09693 23-182, chain 2 of 3, further chain): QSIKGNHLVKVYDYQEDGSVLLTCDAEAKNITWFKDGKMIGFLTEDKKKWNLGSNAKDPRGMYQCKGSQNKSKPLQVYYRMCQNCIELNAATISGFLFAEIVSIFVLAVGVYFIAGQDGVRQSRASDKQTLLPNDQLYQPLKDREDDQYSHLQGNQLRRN
Sequence of human CD3 on CD3+ Jurkat cells (human) (P04234 22-171, chain 3 of 3, further chain): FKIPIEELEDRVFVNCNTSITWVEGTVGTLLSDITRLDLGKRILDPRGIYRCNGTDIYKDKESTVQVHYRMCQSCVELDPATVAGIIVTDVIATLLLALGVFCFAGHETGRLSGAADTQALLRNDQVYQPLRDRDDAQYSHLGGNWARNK
Sequence of human CD19 on CD19+ B cell lines (Ramos, Raji) (human) (P15391 20-556): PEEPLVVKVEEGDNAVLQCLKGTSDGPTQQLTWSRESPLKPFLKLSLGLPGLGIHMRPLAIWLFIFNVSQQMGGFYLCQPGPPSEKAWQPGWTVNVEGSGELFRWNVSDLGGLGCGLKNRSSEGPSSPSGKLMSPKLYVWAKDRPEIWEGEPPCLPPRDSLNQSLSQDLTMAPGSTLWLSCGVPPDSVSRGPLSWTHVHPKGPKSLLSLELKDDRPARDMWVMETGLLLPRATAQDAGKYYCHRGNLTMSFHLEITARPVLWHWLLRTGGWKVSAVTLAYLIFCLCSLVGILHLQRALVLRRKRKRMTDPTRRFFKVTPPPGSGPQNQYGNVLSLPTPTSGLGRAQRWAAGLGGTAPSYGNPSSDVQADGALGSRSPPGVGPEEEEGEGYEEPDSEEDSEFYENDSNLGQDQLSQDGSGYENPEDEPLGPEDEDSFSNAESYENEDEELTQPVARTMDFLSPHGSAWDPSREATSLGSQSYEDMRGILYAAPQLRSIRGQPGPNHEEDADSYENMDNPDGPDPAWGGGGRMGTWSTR

| Substance | Q2 % (events positive for both the CD3+ and the CD19+ cell label) [1] [%] | Q2 % (events positive for both the CD3+ and the CD19+ cell label) [2] [%] | EC50 (read off the curve) [3] [nM] | EC50 (read off the curve) [4] [nM] |
| --- | --- | --- | --- | --- |
| irrelevant IgG (antibody) | 4.91 | 4.91 |  |  |
| control human IgG1 antibody |  |  | 30 | 30 |
